Measured values from a protein production outcome set (Wang et al. 2014).

Experiment: label from the status in PepcDB records
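Also: failed if final PepcDB status was selected cloned or expressed and not failed if soluble or beyond.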

With “GRAPRNGEKVLVEFVSANPTGPLHVGHARQAALGDAICRLYDASGWDVTREFYYNDAGNQIDNLAISVQARGRGIAPDAPDYPADGYKGDYIVEIARDFAARKSVQASDGQPVTATGDLDSLDDIRAFAVAYLRREQDLDLQAFGLAFDNYFLESSLYASGRVQETVDTLVAKGHTYEEGGALWLRTTELGTGDDKDRVMRKSEGGYTYFVPDVAYHKVKWERGFHHAVNIQGSDHHGTVARVRAGLQGLAGIPKDFPAYVLHKMVKVMRGGEEVKISKRAGSYVTMRDLIDWVGRDAVRYFLIQRRADTEFVFDIDLALSKSDENPVYYIQYAHARICTMIGNSGA” the protein production was “failed”.
With “GRLRTDAVRAFCTTIVEATAPYACAFKPNFAFFEALGPAGLTVLDQVVTTIPDDCLVLGDAKRGDIGHSARHYAASIYEELGLDACTVSPYLGRDSVMPFLEHEGTCTFVLARTSNDGAADLQEACTCDGTPLYRHVARRVQAWNADAPGGAGLVVGATAPAALQDLRSLCPSLPFLVPGVGAQGGDAAAVMDAAATDEGPVLVNSSRSILYASEGPNYANAAADAARALRDALNG” the protein production was “failed”.
In the case of “GSGATSAAGKPQETFLDFNESPYGPSAKARAAMQRAAALCGRYDYDAQDALVGLFAKQNGIPAECVHAYCGSRQPLQYAVAAFTGKERGLVIADPSYDSVVGAAQAQGAKVAAVPLDAEAAHDIERMLAAAQRDAGLIYICNPNNPTGTLTPHERIVRAIERKPERSVVLVDEAYIHFSDAPSVVGLAVQRQDVLVLRTFSKLYGMAGARLGLAIGHPQLLARLERFGGHNVVPSPTAHAGLESLRDDDLVPRRKQQNAEVRERTIAWLRQQGFRCTASQSNCFMVDMRRPAELVIAELEKQRVHVGRPWASWPNWVRVTVGSEEEMQAFR”, the protein production is reported as “failed”.
For “GSPDPEIFRQRFRQFGYQDSPGPREAVSQLRELCRLWLRPETHTKEQILELVVLEQFVAILPKELQTWVRDHHPENGEEAVTVLEDLESELDD”, the protein production was “not failed”.
With “GSSGSSGMDEDVLTTLKILIIGESGVGKSSLLLRFTDDTFDPELAATIGVDFKVKTISVDGNKAKLAIWDTAGQERFRTLTPSYYRGAQGVILVYDVTRRDTFVKLDNWLNELETYCTRNDIVNMLVGNKIDKENREVDRNEGLKFARKHSMLFIEASAKTCDGVQCAFEELVEKIIQTPGLWESENQNSGPSSG” the protein production was “not failed”.
With “GSSGSSGNWIDVRYDLEKIESLIQSIHIDTTLYTDSDFHPSCKVTAMNCFLLELQVILHEYSNMTLNETVRNVLYLANSTLSSNKNVAESGCKECEELEEKTFTEFLQSFIRIVQMFINTS” the protein production was “not failed”.
For “GVDRWPEYYPETGRDIWIDSVMRQEYLWYRDMPSPAAPDYFQKPEAFLKKAVASMDNGFSKIDSLLDEPIPSYGFDYTLYKVLDNDTAYNALISYVVPGSPAEEAGLQRGHWIMMMNGDYITKKVESELLQGSTRQLQIGVYKEVVGEDGEVTGGVVPIGETTMPASRSLVDKPVHRFEIIPWNGKKVGYLMYNEFKAGPTTDSQAYNDDLRRAFRDFQTGGVNEFVLDLRYNTGGSLDCAQLLCTMLAPADKMNQLLALLRYSDKRVEANQDLTFNPELIQSGANLNLSTVYVLTTNATRGAAEMVINCLNPYMKVVLIGTKTAGEYVATKPFVHPTDRFILNLVVCNVYNAEEKSDYATGFKPTYEYNEDSYLSTYLPFGNTNETLLNAALKIMSGITDK”, the protein production was “not failed”.
With “GYAVSVRVGGKEHRHWERYDIDSDFLIPADSFDFVIGRLGPEAAIPDLSGESCEVVIDGQIVMTGIIGSQRHGKSKGSRELSLSGRDLAGFLVDCSAPQLNVKGMTVLDAAKKLAAPWPQIKAVVLKAENNPALGKIDIEPGETVWQALTHIANSVGLHPWLEPDGTLVVGGADYSSPPVATLCWSRTDSRCNIERMDIEWDTDNRFSEVTFLAQSHGRSGDSAKHDLKWVYKDPTMTLHRPKTVVVSDADNLAALQKQAKKQLADWRLEGFTLTITVGGHKTRDGVLWQPGLRVHVIDDEHGIDAVFFLMGRRFMLSRMDGTQTELRLKEDGIWTPDAYPK” the protein production was “not failed”.
With “HDVIFHIRAKGKNQKLLLSAHPSYSRVHITAQAYENPSEPPMFCMLLRKHIEGGFIEKIEQAGLDRIMIFHIKSRNEIGDETVRKLYVEIMGRHSNIILTDAAENVIIDGLKHLSPSMNSYRTVLPGQDYKLPPAQDKISPLEASEDDILRHLSFQEGRLDKQIVDHFSGVSPLFAKEAVHRAGLANKVTLPKALLALFAEVKEHRFIPNITTVNGKEYFYLLELTHLKGEARRFDSLSELLDRFYFGKAERDRVKQQAQDLERFVVNERKKNANKIKKLEKTLEYSENAKEFQLYGELLTANLYMLKKGD” the protein production was “failed”.
In the case of “HGEQSYSIGILTDITMTKMYEVLQYKVLEALILERPLDEVMTMLCHEVERIAPEVTASILQSIGQNHLSHLAGPSLPPAYTAVISSVPISPIAGSCGTAAFRKEAVEVQDIATDPLWDNYRHLILPHGLLACWSTPIISSQGQLLGTFAFYYRQIRSPSDFHRQLVKLIANLCSLAMERELSRKQIQHLAFYDS”, the protein production is reported as “failed”.
In the case of “HKEDKEDFAELSGIAVPAEITAEDGTMFKEALLFTHRGLSGPSVLQISSFWKAGQKVSINLVPNEDIALLLERSLEKHPNQSLKNTLAKVLPKRLVEVLIERKELMDKPLKQFNPKELASVVERLENWSIAPNGTEGYRTAEVTLGGVDTDHLSSKTMECKNIKGLYFIGEVMDVTGWLGGYNFQWCWSSGFVAGQWV”, the protein production is reported as “failed”.
With “HLGEVQSEVVRFAVRFPSDKEQSSLLIDADAPVYDFVRLRLLNGEPVSLDLTVMPVGLVPGLTKSHLEGSVFRYVQETLGLKLMGSYRVVRAMKPGELDKQHLHCEPTDPVLEVEQVIYLEDGTPLEYAHCHYRYDHGG” the protein production was “not failed”.
For “HPHIQLLKSNRELLVTHIRNTQCLVDNLLKNDYFSAEDAEIVCACPTQPDKVRKILDLVQSKGEEVSEFFLYLLQQLADAYVDLRPWLLEIGFS”, the protein production was “not failed”.
For “HRMDAVEVTLFEKETRVAAHQTGHNSGVVHAGLYYLPGSLKARLCRRGVTLLQQYAENKGVAYEECGKVVVAHDSSEVARMDAIFDRAVANGVPGIRKVAGEEIPEIEPHARGVAAVHSPHTAIIDYVAVAEALAADITAAGGRVLLGREVVGLDSRTAETVVTTGQGSEVFDLVVTCAGLQSDRVALMSGEPRSPRVVPFFGDYFLLEPERSSLVKGLIYPVPDPRYPFLGVHLTKRIDGRIMLGPNAFLSF”, the protein production was “failed”.
In the case of “HVAGHHLAPTIIAADQHWLLVNWLEGDVVTHAQFIELSNNGQLAQLLTRLHHLPASGYRLDLRAQLIRYAGQIDTKRLSPSWLRLHQHFQRRSPPQPVKLAPLHMDIHPGNLLATPSGLKLIDWEYAADGDIALDIAALFRGNGWSAPQQQAFLQHYCLNEQGYPDIDRLSRQIQRWVPWVDYLMLMWFEVRWQQTGD”, the protein production is reported as “failed”.
With “HYIFPHARIKITRDSKDHTVSGNGLGIRIVGGKEIPGHSGEIGAYIAKILPGGSAEQTGKLMEGMQVLEWNGIPLTSKTYEEVQSIISQQSGEAEICVRLDLNM” the protein production was “not failed”.
In the case of “HYTPKSLTEAIVAETLTPLTYFGPVEGSACKEWTLKTPAELLDLKICDPAMGSGAFLVQACRWLADRLVEAWAQAEIKGKIINVDGNVLDDLSSNELMPHDIDARINIARYLIAERCLYGIDLNPLAVELAKLSIWLVTLAKGRPFGFLDHSLRCGDSLLGIHQVNQLIELSVLTNSDDQDTLFSKDIRKAIYDASKLRQRLREMPIGDIHDIEEMERLNTEAHKRLYKAKKIADALVGEIFATGANFSAREARLKMLSLKLKESVEEDENIFMEISYQGTVKLQQELPSGRSKRIPIHWPLEFPEVFIRTCSGFDAIIGNPPFLGGRKITGVFGNLYREYLVANIAKGERGSSADLVAYFFLRSFYLLRESGCLGLIAVNSIAEGDSRQIGLERLLQSGAQIFSATPNEPWPGKAAVVTSRIHLIKGAFFGEKLLNGKKVAIISAFLSDQNEWSPKILKENLGQS”, the protein production is reported as “failed”.
With “IEIDSGSGFCFGVVNAIRHAEKQLEKSSDKLYCLGDIVHNTLEVERLGKKGLETIDYDAFSRLRGAKVLLRAHGEPPEIYRMAGENGVTIIDATCPVVLRLQNKIKSRYEATRSLGAQVVIYGKRGHAEVNGLVGQTEGTAIVIESEEELDKIDYTRPVILFSQTTKSLEGFGQIIDSISTRMQPGVTFEHHDTICRQVANRIPHIGAFATAHELVFFVAGEKSSNGKVLFGHCLAANPRSIFISSPEVIVPDMLVPLPASIGICGATSTPRWQMEEVASHIKAL” the protein production was “failed”.
In the case of “IESIPMPILYKNMEGSYLGCNSKFLELSGKSREEVIGFRVGDLLDKKSAMEIEECERHLKEKGECPSHDIRFVDHRGEECFIRVYKTLLTNNFDEPVGILGFFVDMS”, the protein production is reported as “failed”.
In the case of “IIAGETSIPSQGENMPAYHARPKNADGPLPIVIVVQEIFGVHEHIRDLCRRLAQEGYLAIAPELYFRQGDPNEYHDIPTLFKELVSKVPDAQVLADLDHVASWAARHGGDAHRLLITGFCWGGRITWLYAAHNPQLKAAVAWYGKLVGEKSLNSPKHPVDIAVDLNAPVLGLYGAKDASIPQDTVETMRQALRAANATAEIVVYPEADHAFNADYRASYHEESAKDGWQRMLAWFAQY”, the protein production is reported as “not failed”.
For “IIWDWNVERDRIIVHPDMKSLFGTETHKLNGPMQNWISALHHDDRERFQAVLDIILKNKKGRIDQIFRLSSGGGYYHWFSLRARPAMQKDGKITRVIGTIVNITNHKKA”, the protein production was “failed”.
For “ILVKNLPQDSNCQEVHDLLKDYDLKYCYVDRNKRTAFVTLLNGEQAQNAIQMFHQYSFRGKDLIVQLQPTDALLC”, the protein production was “not failed”.
With “IRVAAFNVLNYDNGAEKGFPTDRGATTATEFSRQHQKIVTALKAINADVYGLMEIANNGYDEKSAIAYLTKSLGPDWKYITPPNMNRLGSDVIAVGILYNAKRVKPVNAAVVFDDQSQKNRVTMAQTFQPIHGGKFFTVIPNHLKSKGSCPEDTASTDADQLDGQGCWNPTRVKAVEQLIQWAAKNPTRVQQPNILFLGDMNSYAKEDPILAFEKANYKVLLNDEKIGQGKQAYSYVFGVSSNALGYGGAGNIDHAIADSNLYRFVKRAFVWHINADEPTALDYNEEYKTDEQKTLFYADDAYRSSDHDPVIVDLDLKESAQQGGVLNFIQQLLDWIAQLFTRT” the protein production was “failed”.
For “ISDRKMAEIALRESEARFRNLFESNIVGMFFASNQGEIFDANDRFLQMIGFTKEELDLGLVHWDRLTPPEYDQKDQEIIARLRNHETPEPWQKEYYRKDGSRIPVLVGVASIDVELEYTVCIVVDMT”, the protein production was “failed”.
With “ISEWARKEQAIRNSEANFRDIFASIKDGLLVLDEDNYICYANAQAVKLLNCTLEELVGTIGSPLEDTEFSLLVDDGTIYTVDVSVTEITWYGQTAKLVSLRDISDRKRMENQLRENQNKYYRLLENLD” the protein production was “failed”.
For “ITKRNVELRVDDSLMRVYVASPKPVGVYPGIVFYSDIYQLGSPIIRLANYLAGFGYVVAAPEIFHRLEPIGLVIEPDDLGRMRGNDNARRTAIAEYDADSRAVIDFLKAETTVNANK”, the protein production was “failed”.
With “IYLYATATGEVRQMHGITVDRERERRVPDHHQLDSDTTTHSHSVKNQEYYKLLHENDTWKLSQSLKDRPFVALNPTRKAQMLAHLCNDLLMNKAVLRQIDGSLETCAQMRKEKYMTDMKVRKYKALHMRKARIEAYERAQAEREAAMQALM” the protein production was “failed”.
With “KAKPVATAPIPGTPWCVVWTGDERVFFYNPTTRLSMWDRPDDLIGRADVDKIIQEPPHKK” the protein production was “not failed”.
In the case of “KALAHAKNDSVAVATDDLKEGEEIQVAFLDNNEKTKITTAEVIPLGHKISLKDIKKGENVIEYGEVIGAATKDIKRGEHVHIHNIKSLRW”, the protein production is reported as “failed”.
In the case of “KEETEIIEGEVVEIQIDRPATGTGSKVGKLTLKTTEMETIYDLGTKMIESLTKDKVQAGDVITIDKATGKISKLGRSFTRAR”, the protein production is reported as “not failed”.
With “KEYNIVITGVGGQGILTAANILGWAALRAGYKVRVGEIHGMSQRFGSVIAYVRFGEEVYGAMVPEGKADVILSFEPVEALRYINYLKKGGLVFTNARPIPPVQVSMGIARYPSLEEIKRIVEEDFGGRFLAFDAEKLAIEAGHVVTTNVVLIGALTQTPGFPLSEDHVRDVIKLNVPPKAVEINMRAFDLGVKT” the protein production was “failed”.
